Measurements from patent US20220119549A1 (TAVOTEK BIOTHERAPEUTICS HONG KONG, published 2022).
Where a chain is given by its changes, count along the chain named. Numbers in names are those of the source.

Assays:
recombinant human TNFα [1] = target: T1, recombinant human TNFα (human, UniProt P01375 77-233); assay: cell-based or functional assay
recombinant human TNFα [2] = target: T1, recombinant human TNFα; assay: ELISA, recombinant human TNFα coated at 1 µg/mL, HRP anti-human secondary
Description: In this assay, 1 μg/mL recombinant human TNFα (R&D systems) was coated on an ELISA plate. Increasing concentrations of anti-TNFα shielded antibodies were applied on the plate and their binding to the recombinant human TNFα was detected by HRP-conjugated anti-human secondary antibody.

recombinant human TNFα [3] = target: T1, recombinant human TNFα; assay: ELISA on human TNFα

T1 sequence (P01375 77-233 limits assumed): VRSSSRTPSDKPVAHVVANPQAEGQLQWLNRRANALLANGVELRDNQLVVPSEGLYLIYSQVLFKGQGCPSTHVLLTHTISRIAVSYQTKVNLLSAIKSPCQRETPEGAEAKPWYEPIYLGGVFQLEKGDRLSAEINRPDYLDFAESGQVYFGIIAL

B1: TAVO192193 (antibody, human IgG1, kappa)
heavy: GIVEECCFRSCDLALLETYCAGGGGSIPVSLRSGGGGGSEVQLVESGGGLVQPGGSLRLSCAASGFDFADYAMHWVRQAPGKGLEWVSAITWNGGHTDYADSVKGRFTISRDNSKNTLYLQMNSLRAEDTAVYYCAKVSYLSTASSLDYWGQGTLVTVSSASTKGPSVFPLAPSSKSTSGGTAALGCLVKDYFPEPVTVSWNSGALTSGVHTFPAVLQSSGLYSLSSVVTVPSSSLGTQTYICNVNHKPSNTKVDKKVEPKSCDKTHTCPPCPAPPAAGPSVFLFPPKPKDTLMISRTPEVTCVVVDVSHEDPEVKFNWYVDGVEVHNAKTKPREEQYNSTYRVVSVLTVLHQDWLNGKEYKCKVSNKALPAPIEKTISKAKGQPREPQVYTLPPSRDELTKNQVSLTCLVKGFYPSDIAVEWESNGQPENNYKTTPPVLDSDGSFLLYSKLTVDKSRWQQGNVFSCSVLHEALHSHYTQKSLSLSPGK
light: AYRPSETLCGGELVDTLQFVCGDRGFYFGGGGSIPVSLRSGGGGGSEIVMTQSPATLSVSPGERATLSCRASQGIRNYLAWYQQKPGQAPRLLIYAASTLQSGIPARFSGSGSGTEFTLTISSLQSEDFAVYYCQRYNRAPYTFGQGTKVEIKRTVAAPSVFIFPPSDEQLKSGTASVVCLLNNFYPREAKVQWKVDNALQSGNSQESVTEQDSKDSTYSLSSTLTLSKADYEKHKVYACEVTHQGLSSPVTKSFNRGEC
notes: Undigested; also called anti-TNFα shielded antibody with IGF2-based masking domain; EAC192/EAC193
HEK-Blue TNFα reporter assay: potency in blocking TNFα functional activity, fold lower than TAVO167127 (recombinant human TNFα [1]): ~50 fold
fold lower binding affinity than TAVO167127 (recombinant human TNFα [2]): ≥ 5 fold

B2: TAVO198199 (antibody, human IgG1, kappa)
heavy: B1 heavy with I27L, P28S, V29G, S30R, L31S, R32D, S33N, G34H
light: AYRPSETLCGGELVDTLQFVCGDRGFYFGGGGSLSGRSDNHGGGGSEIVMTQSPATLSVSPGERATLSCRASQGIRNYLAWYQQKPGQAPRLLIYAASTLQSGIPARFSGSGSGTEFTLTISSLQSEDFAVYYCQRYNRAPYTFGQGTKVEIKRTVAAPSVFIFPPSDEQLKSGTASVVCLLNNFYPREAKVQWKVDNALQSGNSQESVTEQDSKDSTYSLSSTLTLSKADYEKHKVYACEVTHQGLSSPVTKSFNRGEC
notes: also called anti-TNFα shielded antibody with IGF2-based masking domain; EAC198/EAC199
HEK-Blue TNFα reporter assay: potency in blocking TNFα functional activity, fold lower than TAVO167127 (recombinant human TNFα [1]): ~50 fold
fold lower binding affinity than TAVO167127 (recombinant human TNFα [2]): ≥ 5 fold

B3: TAVO194195 (antibody, human IgG1, kappa)
heavy: B1 heavy with I27G, V29L, S30G, L31M, R32L, G34Q
light: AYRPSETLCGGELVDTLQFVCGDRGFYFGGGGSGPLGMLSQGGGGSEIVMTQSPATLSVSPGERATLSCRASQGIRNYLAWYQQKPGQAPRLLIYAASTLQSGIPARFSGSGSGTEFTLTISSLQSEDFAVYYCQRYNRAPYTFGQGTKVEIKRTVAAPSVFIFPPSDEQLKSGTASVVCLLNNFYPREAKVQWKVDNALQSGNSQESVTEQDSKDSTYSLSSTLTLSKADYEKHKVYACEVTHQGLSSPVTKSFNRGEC
notes: also called anti-TNFα shielded antibody with IGF2-based masking domain; EAC194/EAC195
HEK-Blue TNFα reporter assay: potency in blocking TNFα functional activity, fold lower than TAVO167127 (recombinant human TNFα [1]): ~50 fold
fold lower binding affinity than TAVO167127 (recombinant human TNFα [2]): ≥ 5 fold

B4: TAVO186187 (antibody, human IgG1, kappa)
heavy: GIVEECCFRSCDLALLETYCAGGGGSGPLGVRGGGGSEVQLVESGGGLVQPGGSLRLSCAASGFDFADYAMHWVRQAPGKGLEWVSAITWNGGHTDYADSVKGRFTISRDNSKNTLYLQMNSLRAEDTAVYYCAKVSYLSTASSLDYWGQGTLVTVSSASTKGPSVFPLAPSSKSTSGGTAALGCLVKDYFPEPVTVSWNSGALTSGVHTFPAVLQSSGLYSLSSVVTVPSSSLGTQTYICNVNHKPSNTKVDKKVEPKSCDKTHTCPPCPAPPAAGPSVFLFPPKPKDTLMISRTPEVTCVVVDVSHEDPEVKFNWYVDGVEVHNAKTKPREEQYNSTYRVVSVLTVLHQDWLNGKEYKCKVSNKALPAPIEKTISKAKGQPREPQVYTLPPSRDELTKNQVSLTCLVKGFYPSDIAVEWESNGQPENNYKTTPPVLDSDGSFLLYSKLTVDKSRWQQGNVFSCSVLHEALHSHYTQKSLSLSPGK
light: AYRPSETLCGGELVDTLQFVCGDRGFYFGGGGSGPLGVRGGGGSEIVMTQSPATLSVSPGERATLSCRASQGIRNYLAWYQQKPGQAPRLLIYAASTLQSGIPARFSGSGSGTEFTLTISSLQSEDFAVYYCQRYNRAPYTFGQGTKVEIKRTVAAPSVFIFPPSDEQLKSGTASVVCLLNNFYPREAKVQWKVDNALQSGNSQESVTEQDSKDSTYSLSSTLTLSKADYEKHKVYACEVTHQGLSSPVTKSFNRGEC
notes: Undigested; IGF2 A chain - MMP2/9 linker (GPLGVR) - heavy chain (ADA-H2X, IgG1 Fc mutant); IGF2 B chain - linker - light chain (ADA-L1); also called anti-TNFα shielded antibody with IGF2-based masking domain; EAC186/EAC187
HEK-Blue TNFα reporter assay: potency in blocking TNFα functional activity, fold lower than TAVO167127 (recombinant human TNFα [1]): ~50 fold
fold lower binding affinity than TAVO167127 (recombinant human TNFα [2]): ≥ 5 fold

B5: TAVO190191 (antibody, human IgG1, kappa)
heavy: B4 heavy with G27P, P28L, L29G, G30L, V31A, R32G
light: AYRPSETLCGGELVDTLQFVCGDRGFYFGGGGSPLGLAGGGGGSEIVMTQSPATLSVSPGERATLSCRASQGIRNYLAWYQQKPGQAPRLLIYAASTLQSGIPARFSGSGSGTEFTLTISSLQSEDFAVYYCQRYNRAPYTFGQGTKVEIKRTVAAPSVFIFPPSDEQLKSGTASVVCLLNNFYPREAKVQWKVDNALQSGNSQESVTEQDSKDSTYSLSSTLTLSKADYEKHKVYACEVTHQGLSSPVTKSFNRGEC
notes: Undigested; Native IGF2 A and B chains, MMP2/9 substrate PLGLAG; also called anti-TNFα shielded antibody with IGF2-based masking domain; EAC190/EAC191
HEK-Blue TNFα reporter assay: potency in blocking TNFα functional activity, fold lower than TAVO167127 (recombinant human TNFα [1]): ~50 fold
fold lower binding affinity than TAVO167127 (recombinant human TNFα [2]): ≥ 5 fold

B6: TAVO271272 (antibody, human IgG1, kappa)
heavy: B4 heavy with V3L, G27P, P28L, L29G, G30L, V31A, R32G
light: not shown
notes: Undigested; ADA-H2X / ADA-L1; also called anti-TNFα shielded antibody with variant IGF2-based masking domain; EAC271/EAC272
fold more reduced binding affinity than TAVO190191 (recombinant human TNFα [3]): 8 fold

B7: TAVO271585 (antibody, human IgG1, kappa)
heavy: B4 heavy with V3L, G27P, P28L, L29G, G30L, V31A, R32G
light: AYRPSETLCGGELVDTLQFVCGDRGFAFGGGGSPLGLAGGGGGSDIVMTQSPDSLAVSLGERATINCRASQGIRNYLAWYQQKPGQAPKLLIYAASTLQSGVPDRFSGSGSGTDFTLTISSLQAEDVAVYYCQRYNRAPYTFGQGTKVEIKRTVAAPSVFIFPPSDEQLKSGTASVVCLLNNFYPREAKVQWKVDNALQSGNSQESVTEQDSKDSTYSLSSTLTLSKADYEKHKVYACEVTHQGLSSPVTKSFNRGEC
notes: Variant IGF2 mask; ADA-H2X / ADA-L2; also called EAC271/EAC585
binding result (recombinant human TNFα [3]): binds

B8: TAVO190197 (antibody, human IgG1, kappa)
heavy: B4 heavy with G27P, P28L, L29G, G30L, V31A, R32G
light: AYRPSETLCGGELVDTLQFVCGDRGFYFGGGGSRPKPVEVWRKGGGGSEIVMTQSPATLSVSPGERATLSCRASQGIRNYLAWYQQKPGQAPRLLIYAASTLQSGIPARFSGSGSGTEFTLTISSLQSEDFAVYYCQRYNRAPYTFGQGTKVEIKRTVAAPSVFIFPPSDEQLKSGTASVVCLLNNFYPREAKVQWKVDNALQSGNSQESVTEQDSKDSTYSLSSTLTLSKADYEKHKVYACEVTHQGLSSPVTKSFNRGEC
notes: Undigested; also called anti-TNFα shielded antibody with two different types of protease-cleavable linkers; undigested TAVO190197
binding result (recombinant human TNFα [3]): binds

B9: TAVO580585 (antibody, human IgG1, kappa)
heavy: GILEECCFRSCDLALLETYCAGGGGSPLGLAGGGGGSEVQLVESGGGLVQPGGSLRLSCAASGFTFDDYAMHWVRQAPGKGLEWVSAITWNSGHIDYADSVKGRFTISRDNSKNTLYLQMNSLRAEDTAVYYCAKVSYLSTASSLDYWGQGTLVTVSSASTKGPSVFPLAPSSKSTSGGTAALGCLVKDYFPEPVTVSWNSGALTSGVHTFPAVLQSSGLYSLSSVVTVPSSSLGTQTYICNVNHKPSNTKVDKKVEPKSCDKTHTCPPCPAPPAAGPSVFLFPPKPKDTLMISRTPEVTCVVVDVSHEDPEVKFNWYVDGVEVHNAKTKPREEQYNSTYRVVSVLTVLHQDWLNGKEYKCKVSNKALPAPIEKTISKAKGQPREPQVYTLPPSRDELTKNQVSLTCLVKGFYPSDIAVEWESNGQPENNYKTTPPVLDSDGSFLLYSKLTVDKSRWQQGNVFSCSVLHEALHSHYTQKSLSLSPGK
light: B7 light
notes: Variant IGF2 mask; ADA-H2 / ADA-L2; also called EAC580/EAC585
binding result (recombinant human TNFα [3]): binds

B10: TAVO584585 (antibody, human IgG1, kappa)
heavy: B9 heavy with E38Q, L48V, T65D, D67A, S92G, I95T
light: B7 light
notes: Variant IGF2 mask; ADA-H4X / ADA-L2; also called EAC584/EAC585
binding result (recombinant human TNFα [3]): binds

B11: TAVO584272 (antibody, human IgG1, kappa)
heavy: B9 heavy with E38Q, L48V, T65D, D67A, S92G, I95T
light: not shown
notes: Variant IGF2 mask; ADA-H4X / ADA-L1; also called EAC584/EAC272
binding result (recombinant human TNFα [3]): binds

B12: TAVO579585 (antibody, human IgG1, kappa)
heavy: B9 heavy with G47V, L48V, T65D, D67A, S92G, I95T, T115S, A125T, V130L
light: B7 light
notes: Variant IGF2 mask; ADA-H1X / ADA-L2; also called EAC579/EAC585
binding result (recombinant human TNFα [3]): binds

B13: TAVO188189 (antibody, human IgG1, kappa)
heavy: B4 heavy with G27P, P28L, L29G, G30L, V31A
light: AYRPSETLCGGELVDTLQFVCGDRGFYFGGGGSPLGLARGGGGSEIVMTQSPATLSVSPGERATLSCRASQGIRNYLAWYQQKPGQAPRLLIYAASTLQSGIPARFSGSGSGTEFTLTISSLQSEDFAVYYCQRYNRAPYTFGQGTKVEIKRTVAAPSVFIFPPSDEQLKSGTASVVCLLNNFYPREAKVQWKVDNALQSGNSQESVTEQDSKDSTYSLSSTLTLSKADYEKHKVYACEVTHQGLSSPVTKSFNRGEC
notes: Undigested; MMP2/9 substrate PLGLAR; also called anti-TNFα shielded antibody with IGF2-based masking domain; EAC188/EAC189
HEK-Blue TNFα reporter assay: potency in blocking TNFα functional activity, fold lower than TAVO167127 (recombinant human TNFα [1]): ~50 fold
fold lower binding affinity than TAVO167127 (recombinant human TNFα [2]): ≥ 5 fold

B14: TAVO578585 (antibody, human IgG1, kappa)
heavy: B9 heavy with G47V, L48V, T115S, A125T, V130L
light: B7 light
notes: Variant IGF2 mask; ADA-H1 / ADA-L2; also called EAC578/EAC585
binding result (recombinant human TNFα [3]): binds

B15: TAVO580272 (antibody, human IgG1, kappa)
heavy: B9 heavy
light: not shown
notes: Variant IGF2 mask; ADA-H2 / ADA-L1; also called EAC580/EAC272
binding result (recombinant human TNFα [3]): binds

B16: TAVO579272 (antibody, human IgG1, kappa)
heavy: B9 heavy with G47V, L48V, T65D, D67A, S92G, I95T, T115S, A125T, V130L
light: not shown
notes: Variant IGF2 mask; ADA-H1X / ADA-L1; also called EAC579/EAC272
binding result (recombinant human TNFα [3]): binds

B17: TAVO578272 (antibody, human IgG1, kappa)
heavy: B9 heavy with G47V, L48V, T115S, A125T, V130L
light: not shown
notes: Variant IGF2 mask; ADA-H1 / ADA-L1; also called EAC578/EAC272
binding result (recombinant human TNFα [3]): binds

B18: TAVO196197 (antibody, human IgG1, kappa)
heavy: GIVEECCFRSCDLALLETYCAGGGGSRPKPVEVWRKGGGGSEVQLVESGGGLVQPGGSLRLSCAASGFDFADYAMHWVRQAPGKGLEWVSAITWNGGHTDYADSVKGRFTISRDNSKNTLYLQMNSLRAEDTAVYYCAKVSYLSTASSLDYWGQGTLVTVSSASTKGPSVFPLAPSSKSTSGGTAALGCLVKDYFPEPVTVSWNSGALTSGVHTFPAVLQSSGLYSLSSVVTVPSSSLGTQTYICNVNHKPSNTKVDKKVEPKSCDKTHTCPPCPAPPAAGPSVFLFPPKPKDTLMISRTPEVTCVVVDVSHEDPEVKFNWYVDGVEVHNAKTKPREEQYNSTYRVVSVLTVLHQDWLNGKEYKCKVSNKALPAPIEKTISKAKGQPREPQVYTLPPSRDELTKNQVSLTCLVKGFYPSDIAVEWESNGQPENNYKTTPPVLDSDGSFLLYSKLTVDKSRWQQGNVFSCSVLHEALHSHYTQKSLSLSPGK
light: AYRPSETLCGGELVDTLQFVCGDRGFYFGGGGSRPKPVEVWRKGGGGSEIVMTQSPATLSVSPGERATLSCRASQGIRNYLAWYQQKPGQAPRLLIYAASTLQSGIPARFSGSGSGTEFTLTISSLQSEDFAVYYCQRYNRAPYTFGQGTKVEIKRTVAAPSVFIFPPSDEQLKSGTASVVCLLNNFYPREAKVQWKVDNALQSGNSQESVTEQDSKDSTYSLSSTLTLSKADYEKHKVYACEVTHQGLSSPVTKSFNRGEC
notes: Undigested; also called anti-TNFα shielded antibody with IGF2-based masking domain; EAC196/EAC197
HEK-Blue TNFα reporter assay: potency in blocking TNFα functional activity, fold lower than TAVO167127 (recombinant human TNFα [1]): ~50 fold
fold lower binding affinity than TAVO167127 (recombinant human TNFα [2]): ≥ 5 fold

B19: TAVO167127 (antibody, human IgG1, kappa)
heavy: EVQLVESGGGLVQPGGSLRLSCAASGFDFADYAMHWVRQAPGKGLEWVSAITWNGGHTDYADSVKGRFTISRDNSKNTLYLQMNSLRAEDTAVYYCAKVSYLSTASSLDYWGQGTLVTVSSASTKGPSVFPLAPSSKSTSGGTAALGCLVKDYFPEPVTVSWNSGALTSGVHTFPAVLQSSGLYSLSSVVTVPSSSLGTQTYICNVNHKPSNTKVDKKVEPKSCDKTHTCPPCPAPPAAGPSVFLFPPKPKDTLMISRTPEVTCVVVDVSHEDPEVKFNWYVDGVEVHNAKTKPREEQYNSTYRVVSVLTVLHQDWLNGKEYKCKVSNKALPAPIEKTISKAKGQPREPQVYTLPPSRDELTKNQVSLTCLVKGFYPSDIAVEWESNGQPENNYKTTPPVLDSDGSFLLYSKLTVDKSRWQQGNVFSCSVLHEALHSHYTQKSLSLSPGK
light: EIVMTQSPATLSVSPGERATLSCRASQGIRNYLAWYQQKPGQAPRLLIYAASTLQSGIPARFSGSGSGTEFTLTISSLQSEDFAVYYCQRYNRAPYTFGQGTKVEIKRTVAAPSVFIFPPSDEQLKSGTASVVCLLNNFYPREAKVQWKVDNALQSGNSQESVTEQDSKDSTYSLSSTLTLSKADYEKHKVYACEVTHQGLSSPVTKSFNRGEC
notes: Control antibody, ADA-H2X / ADA-L1 variable domains, IgG1 Fc with E233P, L234A, L235A, F405L, M428L, N434S and G236 deleted; also called active anti-TNFα antibody without the IGF2-based masking domain; unmasked anti-TNFα antibody
binding result (recombinant human TNFα [2]): binds

B20: TAVO190197 after digestion by both MMP2 and MMP3 (antibody)
heavy: B19 heavy
light: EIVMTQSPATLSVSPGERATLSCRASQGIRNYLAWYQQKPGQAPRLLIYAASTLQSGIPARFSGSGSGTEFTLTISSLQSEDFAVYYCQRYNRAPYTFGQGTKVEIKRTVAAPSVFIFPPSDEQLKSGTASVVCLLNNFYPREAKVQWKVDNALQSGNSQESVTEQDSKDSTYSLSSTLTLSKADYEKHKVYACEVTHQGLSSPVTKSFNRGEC
notes: Both chains cut; not shown: remnant of the MMP2-cleavable linker left after cleavage; remnant of the MMP3-cleavable linker left after cleavage
binding result (recombinant human TNFα [3]): binds
